The text below walks through data of US20230119066A1.

Assay [1] deals with mouse C-C Motif Chemokine Receptor 8 (mCCR8) (mouse) (UniProt P56484). The experiment in a line: cell-based or functional assay.
For assay [2] the target is unchanged. The experiment in a line: flow cytometry on mouse thymic CD4+ cells. (In general: A flow cytometer gives signals particle by particle.)
Assay [3] has the same target. The experiment in a line: flow cytometry on mCCR8-expressing CHO cells.
Assay [4] has the same target. Kind of assay: flow cytometry on activated mouse splenic CD4+ cells.

mouse C-C Motif Chemokine Receptor 8 (mCCR8) (mouse), sequence (P56484 whole entry): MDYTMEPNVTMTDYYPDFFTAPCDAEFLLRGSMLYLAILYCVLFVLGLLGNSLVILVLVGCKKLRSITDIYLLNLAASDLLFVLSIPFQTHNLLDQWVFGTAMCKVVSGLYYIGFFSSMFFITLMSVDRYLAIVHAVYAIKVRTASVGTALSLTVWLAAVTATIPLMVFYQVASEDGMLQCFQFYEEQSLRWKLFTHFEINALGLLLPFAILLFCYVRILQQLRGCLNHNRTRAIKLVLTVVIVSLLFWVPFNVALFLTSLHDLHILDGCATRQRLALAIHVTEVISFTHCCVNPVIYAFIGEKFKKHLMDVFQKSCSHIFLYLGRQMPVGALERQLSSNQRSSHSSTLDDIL

Usually EC50 stands for the concentration that produces a half-maximal response. “anti-CCR8-mIgG2a, mouse IgG2a isotype of rat anti-mCCR8 mAb Clone SA214G2 (BioLegend) (antibody)” had an EC50, crosslinking of mouse FcgRIV+ luciferase reporter effector cells in assay [1] of 6.34 nM. The substance further yielded an IC50, blockade of Ca flux on mCCR8-expressing CHO cells in assay [1] of 19.3 nM. The EC50 in assay [2] is 4 nM; in assay [3], 6.44 nM; in assay [4], 6.16 nM.
